From US20120220015
Substitutions are numbered along the chain they refer to. In names and notes the source's numbering stands.

B1: Lemna-derived plasmin from transgenic line BAP12-B2-150 (aglycosylated plasmin derived from mature human plasminogen with the N289D substitution) (protein)
chain 1: KVYLSECKTGNGKNYRGTMSKTKNGITCQKWSSTSPHRPRFSPATHPSEGLEENYCRNPDNDPQGPWCYTTDPEKRYDYCDILECEEECMHCSGENYDGKISKTMSGLECQAWDSQSPHAHGYIPSKFPNKNLKKNYCRNPDRELRPWCFTTDPNKRWELCDIPRCTTPPPSSGPTYQCLKGTGENYRGNVAVTVSGHTCQHWSAQTPHTHDRTPENFPCKNLDENYCRNPDGKRAPWCHTTNSQVRWEYCKIPSCDSSPVSTEQLAPTAPPELTPVVQDCYHGDGQSYRGTSSTTTTGKKCQSWSSMTPHRHQKTPENYPNAGLTMNYCRNPDADKGPWCFTTDPSVRWEYCNLKKCSGTEASVVAPPPVVLLPDVETPSEEDCMFGNGKGYRGKRATTVTGTPCQDWAAQEPHRHSIFTPETNPRAGLEKNYCRNPDGDVGGPWCYTTNPRKLYDYCDVPQCAAPSFDCGKPQVEPKKCPGR
chain 2: VVGGCVAHPHSWPWQVSLRTRFGMHFCGGTLISPEWVLTAAHCLEKSPRPSSYKVILGAHQEVNLEPHVQEIEVSRLFLEPTRKDIALLKLSSPAVITDKVIPACLPSPNYVVADRTECFVTGWGETQGTFGAGLLKEAQLPVIENKVCNRYEFLNGRVQSTELCAGHLAGGTDSCQGDSGGPLVCFEKDKYILQGVTSWGLGCARPNKPGVYVRVSRFVTWIEGVMRNN
B2: Lemna-derived plasmin from transgenic line BAP01-B2-230 (derived from mature human plasminogen with the N-linked glycosylation site Asn-289) (protein)
chain 1: B1 chain 1 with D212N
chain 2: B1 chain 2

Columns and labels:
[1] = target: T1, α2-antiplasmin, P08697
T1 chain: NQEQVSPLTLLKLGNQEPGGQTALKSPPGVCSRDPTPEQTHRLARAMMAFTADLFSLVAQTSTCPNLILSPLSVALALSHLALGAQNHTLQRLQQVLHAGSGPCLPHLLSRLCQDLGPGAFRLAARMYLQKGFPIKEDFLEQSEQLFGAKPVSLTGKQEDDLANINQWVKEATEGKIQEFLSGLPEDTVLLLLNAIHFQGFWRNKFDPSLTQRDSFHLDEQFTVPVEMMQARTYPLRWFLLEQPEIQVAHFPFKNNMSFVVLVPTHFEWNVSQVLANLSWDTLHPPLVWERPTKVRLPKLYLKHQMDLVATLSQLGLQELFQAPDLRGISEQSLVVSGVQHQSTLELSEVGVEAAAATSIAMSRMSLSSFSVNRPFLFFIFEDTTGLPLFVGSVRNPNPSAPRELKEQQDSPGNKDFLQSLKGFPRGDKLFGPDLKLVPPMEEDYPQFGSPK

[2] = target: T2, fibrin (clot formed from purified fibrinogen with α-thrombin), P02671
T2 chain 1: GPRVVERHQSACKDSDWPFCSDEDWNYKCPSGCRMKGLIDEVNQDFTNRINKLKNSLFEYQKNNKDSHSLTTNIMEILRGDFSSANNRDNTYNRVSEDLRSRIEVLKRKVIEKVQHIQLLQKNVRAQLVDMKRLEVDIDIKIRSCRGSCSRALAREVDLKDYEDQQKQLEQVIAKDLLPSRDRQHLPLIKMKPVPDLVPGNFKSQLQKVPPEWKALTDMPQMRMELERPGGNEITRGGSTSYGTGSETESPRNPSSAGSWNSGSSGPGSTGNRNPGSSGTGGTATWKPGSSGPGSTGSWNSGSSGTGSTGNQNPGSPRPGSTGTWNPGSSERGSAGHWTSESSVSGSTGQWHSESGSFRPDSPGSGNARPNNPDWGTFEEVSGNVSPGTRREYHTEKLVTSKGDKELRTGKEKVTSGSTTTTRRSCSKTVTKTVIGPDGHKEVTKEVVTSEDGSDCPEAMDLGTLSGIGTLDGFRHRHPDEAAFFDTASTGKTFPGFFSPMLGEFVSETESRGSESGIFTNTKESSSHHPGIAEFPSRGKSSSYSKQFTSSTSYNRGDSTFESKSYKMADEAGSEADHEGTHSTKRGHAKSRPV
T2 chain 2: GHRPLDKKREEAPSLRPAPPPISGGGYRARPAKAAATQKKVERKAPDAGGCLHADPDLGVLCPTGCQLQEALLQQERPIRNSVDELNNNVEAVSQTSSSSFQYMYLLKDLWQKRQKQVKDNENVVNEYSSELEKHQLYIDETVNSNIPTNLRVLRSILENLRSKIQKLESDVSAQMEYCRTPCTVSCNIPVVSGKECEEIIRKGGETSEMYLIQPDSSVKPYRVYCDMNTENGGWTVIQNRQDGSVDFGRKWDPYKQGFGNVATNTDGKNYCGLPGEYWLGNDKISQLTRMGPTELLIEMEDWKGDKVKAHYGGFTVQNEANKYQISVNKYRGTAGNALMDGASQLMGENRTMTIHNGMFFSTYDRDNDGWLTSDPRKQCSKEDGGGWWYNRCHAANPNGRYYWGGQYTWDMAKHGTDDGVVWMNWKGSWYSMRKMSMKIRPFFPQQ
T2 chain 3: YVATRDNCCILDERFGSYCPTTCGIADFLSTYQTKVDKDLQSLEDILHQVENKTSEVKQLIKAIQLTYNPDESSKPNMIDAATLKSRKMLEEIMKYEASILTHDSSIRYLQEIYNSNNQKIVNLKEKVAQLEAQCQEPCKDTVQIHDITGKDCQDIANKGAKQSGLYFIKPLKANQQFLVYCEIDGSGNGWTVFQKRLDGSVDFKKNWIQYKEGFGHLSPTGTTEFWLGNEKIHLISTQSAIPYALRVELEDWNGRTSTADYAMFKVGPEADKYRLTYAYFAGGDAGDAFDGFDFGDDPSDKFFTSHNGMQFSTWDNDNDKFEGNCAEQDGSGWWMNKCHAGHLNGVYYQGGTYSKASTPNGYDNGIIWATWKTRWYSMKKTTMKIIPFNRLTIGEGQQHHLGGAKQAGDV

| Protein | plasmin activity (S-2403 hydrolysis at 405 nm) after 30 minutes pre-incubation with α2-AP, plasmin:α2-AP molar ratio of 1:1 [1] | fibrin clot lysis (decrease of turbidity at 340 nm), plasmin at 500, 250, 125 and 62 nM [2] |
| --- | --- | --- |
| B1 | no plasmin activity was detected for human, BAP12-B2-150, or BAP01-B1-230 plasmin, indicating that the inhibition was complete | There was no evidence of a difference between fibrinolysis induced by plasmin derived from BAP01-B2-230 and BAP12-B2-150; their respective lysis profiles were very similar for all four plasmin concentrations |
| B2 | no plasmin activity was detected for human, BAP12-B2-150, or BAP01-B1-230 plasmin, indicating that the inhibition was complete | There was no evidence of a difference between fibrinolysis induced by plasmin derived from BAP01-B2-230 and BAP12-B2-150; their respective lysis profiles were very similar for all four plasmin concentrations |
